Data published in patent publication US20250136687A1 (SHANDONG SIMCERE BIOPHARMACEUTICAL, published 2025).
Numbering of substitutions follows the chain as printed.

T1: monkey CD3ε protein (monkey, UniProt Q95LI5 22-117, limits assumed)
T1 sequence (looked up): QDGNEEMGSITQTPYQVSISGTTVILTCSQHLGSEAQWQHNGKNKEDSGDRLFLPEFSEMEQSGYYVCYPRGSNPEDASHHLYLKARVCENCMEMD

B1: 1-22.6-1-H2a-L2a humanized antibody (antibody, human IgG1, kappa, V domains shown)
VH: EVQLVQSGSELKKPGASVKVSCKTSGYTFTSYGMSWVRQAPGQGLEWMGWINTYSGVPTYAQDFKGRFVFSLDTSVSTAYLQISSLKAEDTAVYYCARLKNNPFVWGQGTTVTVSS
VL: DIVMTQSPDSLAVSLGERATINCRSSQLILHSSGNTYLEWYQQKPGQSPKLLIYKVSNRFSGVPDRFSGSGSGTDFTLTISSLQAEDVAVYYCFQGSHFPWTFGGGTKVEIKR
notes: also called 1-22.6-H2a-L2a
B2: 1-22.6 murine hybridoma antibody (supernatant) (antibody, V domains shown)
VH: QIPLVQSGPELKKPGETVKISCKTSGYTFTSYGMSWVKQAPGKGLKWMGWINTYSGVPTYADDFKGRFVFSLDTSASTAFLQINNLKNEDTATYFCARLKNNPFCWGQGSTLTVFS
VL: DVLMTQSPLSLPVRLGDQASISCRSSQLILHSNGNTYLEWYLQKPGQSPKLLIYKVSNRFSGVPDRFSGSGSGTDFTLKISRVEAEDLGVYYCFQGSHFPWTFGGGTKLEIK
notes: Tested as hybridoma supernatant
B3: 5-40.21 murine hybridoma antibody (supernatant) (antibody, V domains shown)
VH: QVQLQQPGSELVRPGASVKLSCKASGYTFTSYWMHWVKQRPGQGLEWIGNTYPGSGSTNYDEKFKSKATLTVDSSSSTAYMQLSSLTSEDSAVYYCTRDRYGVYYFDYWGQGTTLTVSS
VL: DIVMSQSPSSLAVSAGEKVTMSCKSSQSLLNSRTRKNYLAWYQQKPGQSPKLLIYWASTRESGVPDRFSGSGSGTDFTLTISSVQAEDLAVYYCTQSYNLRTFGGGTKLEIK
notes: as for B2
B4: 6-44.5 murine hybridoma antibody (supernatant) (antibody, V domains shown)
VH: EVQLQQSGPELVKPGASVKMSCKASGHTFTSHIMHWVKQKPGQGLEWIGYINPNNDRTEYSEKFKGKATLTSDKSSSTAYMELSSLTSEDSAVYYCAGEAYYSNSLYAMDYWGQGTSVTVSS
VL: B3 VL with L30F, K51E, D66V, S69T, T95K, N99Y, I111V
notes: as for B2
B5: 6-35.22 murine hybridoma antibody (supernatant) (antibody, V domains shown)
VH: EVKLVESGGGLVQPGASLSLSCAASGFTFTDYYMSWVRQPPGKALEWLAMSRNKAKGHTIEYSSSVKGRFTISRDNSQSILYLQMNALRAEDSATYYCARDTYESYDGYFDVWGAGTTVIVSS
VL: B3 VL with K18T, L30F, T34S, S49T, T59I, S69T, T95K, N99Y, R101Y, G105S
notes: as for B2

Tests used:
[1] = target: T2, recombinant human CD3ε-ECD His protein (human, UniProt P07766 23-126); experiment: ELISA, coated antigen
T2 construct: extracellular domain; also called human CD3ε-His; CD3ε antigen protein; not shown: His tag
T2 sequence (P07766 23-126): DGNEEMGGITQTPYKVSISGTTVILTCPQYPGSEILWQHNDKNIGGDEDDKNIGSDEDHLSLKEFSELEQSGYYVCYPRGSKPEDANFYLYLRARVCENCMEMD
Description: (§1) To detect the binding activity of the humanized antibodies to CD3 protein, CD3 protein was diluted with PBS to the final concentration of […], then added to a 96-well ELISA plate at 50 μL/well, and the plate was sealed with a plastic film, and incubated overnight at 4° C. On the next day, the plate was washed 2 times with PBS, and a blocking solution [PBS+2% (v/v) BSA] was added for blocking at room temperature for 2 h. The blocking solution was poured off, and the antibody (initial concentration of 100 nM, and gradient dilution at 1:10) or a negative control antibody was added at 50 µl/well. After incubation at 37° C. for 2 h, the plate was washed 3 times with PBS. […] TMB substrate was added at 50 μl/well, and incubated at room temperature for 10 min, and then a stop solution (1.0 N HCl) was added at 50 μl/well. The OD450 nm values were read by an ELISA microplate reader (Multimode Plate Reader, EnSight, purchased from Perkin Elmer).

human CD3ε/δ-His [2] = target: T3, human CD3ε/δ-His (human, UniProt P07766 23-126; P04234 22-105); experiment: ELISA, coated antigen
T3 construct: Bought recombinant heterodimer with His tag; also called human CD3ε/δ protein
T3 sequence (P07766 23-126, stated change not applied, form in doubt, chain 1 of 2): as the sequence (P07766 23-126) above
T3 sequence (P04234 22-105, stated change not applied, form in doubt, chain 2 of 2): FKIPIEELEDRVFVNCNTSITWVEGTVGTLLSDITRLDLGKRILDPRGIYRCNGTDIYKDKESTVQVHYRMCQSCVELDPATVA
Description: as §1

monkey CD3ε protein = target: T1, monkey CD3ε protein; experiment: ELISA, coated antigen
Description: as §1
(§2) To detect the binding activity of the humanized antibodies to monkey CD3 protein, CD3 protein was diluted with PBS to the final concentration of […], and then added to a 96-well ELISA plate at 50 μl/well.

monkey CD3ε/δ-His [3] = target: T4, monkey CD3ε/δ-His (monkey, UniProt Q95LI5 22-117; Q95LI8 22-105); experiment: ELISA, coated antigen
T4 construct: Bought recombinant heterodimer with His tag
T4 sequence (Q95LI8 22-105, stated change not applied, form in doubt, chain 2 of 2, one chain of several): as the sequence (P04234 22-105, stated change not applied, form in doubt, chain 2 of 2) above, with I5V, N15K, I20V, S32T, D33N, I34N, T64A, S74N, V83L counted along it
Description: as §1, §2

[4] = target: T5, human CD3 on the cell surface (Jurkat cells, expanded human T cells, Jurkat-Lucia NFAT cells, human PBMC) (human, UniProt P07766 23-207; P04234 22-171; P09693 23-182); experiment: FACS, expanded human T cells
T5 construct: whole, on cells; Endogenous CD3 within the TCR-CD3 complex on cells (also zeta chains and TCR); the cell type is named under assay
T5 sequence (P07766 23-207, chain 1 of 3): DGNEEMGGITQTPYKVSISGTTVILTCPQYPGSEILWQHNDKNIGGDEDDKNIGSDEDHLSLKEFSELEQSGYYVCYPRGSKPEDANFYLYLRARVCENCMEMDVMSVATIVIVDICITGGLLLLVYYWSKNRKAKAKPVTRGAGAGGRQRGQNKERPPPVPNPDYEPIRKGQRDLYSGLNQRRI
T5 sequence (P04234 22-171, chain 2 of 3): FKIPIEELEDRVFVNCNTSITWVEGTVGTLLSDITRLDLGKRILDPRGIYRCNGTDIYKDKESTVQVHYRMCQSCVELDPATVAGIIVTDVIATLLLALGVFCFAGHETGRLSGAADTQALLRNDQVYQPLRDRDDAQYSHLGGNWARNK
T5 sequence (P09693 23-182, chain 3 of 3): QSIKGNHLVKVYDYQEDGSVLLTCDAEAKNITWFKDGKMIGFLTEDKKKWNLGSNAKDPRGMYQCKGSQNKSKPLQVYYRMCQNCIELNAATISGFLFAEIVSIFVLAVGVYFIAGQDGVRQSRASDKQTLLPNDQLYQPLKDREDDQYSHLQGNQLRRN
Description: (§3) The binding of the chimeric antibodies to CD3 on the cell surface was analyzed by detecting the binding of the antibodies to Jurkat cells and human T cells. Suspension cells Jurkat cells were scale-up cultured in T-75 cell culture flasks to the logarithmic growth phase, the supernatant of the medium was discarded by centrifugation, and the cell pellet was washed 2 times with PBS for later use. The expanded human T cells were washed 2 times with PBS for later use. After counting the cells in the previous step, the cell pellet was resuspended with [PBS+2% (w/w) BSA] blocking solution to 4×10⁶ cells/ml, and added to a 96-well FACS reaction plate at 50 μl/well, and then the chimeric antibody to be tested was added at 50 μl/well, and incubated at 4° C. for 1 h. The cells were centrifuged and washed 3 times with a PBS buffer. […] The cells were centrifuged and washed 5 times with PBS, and FACS (FACS Canto™, purchased from BD Company) was used for detection and result analysis. Data analysis was performed by software (CellQuest) to obtain the mean fluorescence […] (MFI) of the cells. And then software (GraphPad Prism8) was used for analysis, data fitting, and EC50 value calculation. The same method was used to simultaneously detect the binding of the chimeric antibodies to endogenous CD3 negative cells MOLT4 cells.
The expanded human PBMC cells were collected, and FACS detection and data analysis were performed according to the method in Example 5.1.

[5] = target: T2, recombinant human CD3ε-ECD His protein; experiment: SPR, antibody captured on Protein A chip
Description: (§4) Running buffer was HBS-EP+(10 mM HEPES, 150 mM NaCl, 3 mM EDTA, 0.05% surfactant P20) (GE Healthcare; BR-1006-69). The flow-through cell was set to 25° C. The sample block was set to 16° C. Both were pretreated with the running buffer. In each cycle, an antibody to be detected was first captured with a Protein A chip, and then a single concentration of CD3ε antigen protein was injected. The binding and dissociation processes of the antibody and the antigen protein were recorded, and finally Glycine pH 1.5 (GE Healthcare; BR-1003-54) was used to complete chip regeneration. The binding was measured by injecting different concentrations of recombinant human CD3ε proteins in a solution for 240 s with a flow rate of 30 μL/min. The concentration started from 200 nM (see the detailed results for the actual concentration in the test) and was diluted at 1:1, making a total of 5 concentrations. The dissociation phase was monitored for up to 600 s and was triggered by switching from sample solution to running buffer. The surface was regenerated by washing with a 10 mM glycine solution (pH 1.5) for 30 s at a flow rate of 30 μL/min. Bulk refractive index difference was corrected by subtracting the response obtained from the goat anti-human Fc surface, and the blank injection was subtracted at the same time (=double reference). For calculation of apparent KD value and other kinetic parameters, Langmuir 1:1 model was used.

human CD3ε/δ-His [6] = target: T3, human CD3ε/δ-His; experiment: SPR, antibody captured on Protein A chip
Description: as §4

[7] = target: T6, cynomolgus monkey CD3 on the surface of expanded monkey T cells (cynomolgus monkey, UniProt Q95LI5 22-198; Q95LI8 22-171; Q95LI7 23-181); experiment: FACS, expanded monkey T cells
T6 construct: whole, on cells; Endogenous CD3 within the TCR-CD3 complex on T cells expanded from cynomolgus monkey PBMC
T6 sequence (Q95LI5 22-198, chain 1 of 3): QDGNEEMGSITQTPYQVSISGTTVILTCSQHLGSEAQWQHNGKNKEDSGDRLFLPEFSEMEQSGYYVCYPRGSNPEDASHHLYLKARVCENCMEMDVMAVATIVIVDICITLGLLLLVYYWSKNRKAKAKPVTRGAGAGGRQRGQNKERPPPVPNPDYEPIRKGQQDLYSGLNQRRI
T6 sequence (Q95LI8 22-171, chain 2 of 3): as the sequence (P04234 22-171, chain 2 of 3) above, with I5V, N15K, I20V, S32T, D33N, I34N, T64A, S74N, V83L, H141R counted along it
T6 sequence (Q95LI7 23-181, chain 3 of 3): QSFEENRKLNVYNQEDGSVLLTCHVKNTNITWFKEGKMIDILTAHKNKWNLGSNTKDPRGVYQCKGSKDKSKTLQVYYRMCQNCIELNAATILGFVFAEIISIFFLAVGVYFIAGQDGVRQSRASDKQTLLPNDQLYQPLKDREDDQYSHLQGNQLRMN
Description: as §3
The expanded monkey T cells were collected, and FACS detection and data analysis were performed according to the method in Example 5.1.

[8] = target: T5, human CD3 on the cell surface (Jurkat …); experiment: cell-based or functional assay
human CD3ε/δ-His [9] = target: T3, human CD3ε/δ-His; experiment: ELISA, coated antigen, hybridoma screening
Source text: (§5) The binding of the supernatant of the hybridoma to human CD3ε/δ-His (purchased from Sino Biological, Inc. (China), catalog number: CT038-H2508H) and monkey CD3ε/δ-His (purchased from Acrobiosystems, CDD-C52W4) was detected by ELISA for the screening of the supernatant of the hybridoma (see Example 10.1 below). The binding of the supernatant of the ELISA positive hybridoma clone to Jurkat cells and monkey T cells was detected by flow cytometry, and the activation of Jurkat-Lucia NFAT cells (purchased from InvivoGen, catalog number: jktl-nfat) by the supernatant of the hybridoma was detected by a reporter gene system (see Example 2.1, Example 2.4 and Example 7.1 below for the method).
as §1

monkey CD3ε/δ-His [10] = target: T4, monkey CD3ε/δ-His; experiment: ELISA, coated antigen, hybridoma screening
Source text: as §5, §1

[11] = target: T6, cynomolgus monkey CD3 on the surface of …; experiment: FACS, monkey T cells, hybridoma screening
Description: (§6) Suspension cells Jurkat cells (purchased from Cell bank of Chinese Academy of Sciences) were scale-up cultured in T-175 cell culture flasks to the logarithmic growth phase, the supernatant of the medium was discarded by centrifugation, and the cell pellet was washed 2 times with PBS. After counting the cells in the previous step, the cell pellet was resuspended with [PBS+2% (w/v) FBS] blocking solution to 4×10⁶ cells/ml, and added to a 96-well FACS reaction plate at 50 μl/well, the supernatant was removed by centrifugation, detection antibodies (initial concentration of […], gradient dilution at 1:5) and an IgG negative control were added at 100 μl/well, the cells were uniformly mixed, and incubated on ice for 1 h. The cells were centrifuged and washed 3 times with a PBS buffer. […] The cells were centrifuged and washed 5 times with a PBS buffer, and FACS (FACS Canto II, purchased from BD Company) was used for detection and result analysis. Data analysis was performed by software (CellQuest) to obtain the mean fluorescence intensity (MFI) of the cells. And then software (GraphPad Prism8) was used for analysis, data fitting, and EC50 value calculation.
as §5

[12] = target: T5, human CD3 on the cell surface (Jurkat …); experiment: FACS, Jurkat cells, hybridoma screening
Description: as §6, §5

Row | Binder | Reporter assay (RLU), Jurkat-Lucia NFAT, supernatant diluted by 4 times [8] [RLU] | Reporter assay (RLU), Jurkat-Lucia NFAT, supernatant diluted by 20 times [8] [RLU] | OD450 (human CD3ε/δ-His [9]) [OD450] | OD450 (monkey CD3ε/δ-His [10]) [OD450] | Mean fluorescence intensity [11] [MFI] | Mean fluorescence intensity [12] [MFI] | further results
1 | B1 | – | – | – | – | – | – | EC50 [1]: 0.1 nM; max-OD450 [1]: 1.49 OD450; EC50 (human CD3ε/δ-His [2]): 0.45 nM; max-OD450 (human CD3ε/δ-His [2]): 3.29 OD450; EC50 (monkey CD3ε protein): 0.000106 nM; max-OD450 (monkey CD3ε protein): 3.09 OD450; EC50 (monkey CD3ε/δ-His [3]): 0.0124 nM; max-OD450 (monkey CD3ε/δ-His [3]): 3.23 OD450; EC50 [4]: 11 nM; max_MFI [4]: 15900 MFI; Kd [5]: 3.64 nM; koff [5]: 0.000305 s⁻¹; kon [5]: 83600 M⁻¹ s⁻¹; Kd (human CD3ε/δ-His [6]): 113 nM; koff (human CD3ε/δ-His [6]): 0.0134 s⁻¹; kon (human CD3ε/δ-His [6]): 119000 M⁻¹ s⁻¹; EC50 [7]: 6.92 nM; max_MFI [7]: 12300 MFI
2 | B2 | 16000 | 8890 | 2.17 | 3.08 | 20800 | 767 | –
3 | B3 | 18900 | 15600 | 2.15 | 1.82 | 15200 | 6910 | –
4 | B4 | 26200 | 21400 | 2.06 | 1.94 | 36200 | 7240 | –
5 | B5 | 29000 | 34100 | 2.01 | 1.74 | 32600 | 7050 | –
